B1: mu-131 (antibody, V domains shown)
VH: EVQLQQSGPELVKPGASVKMSCKASGYTFTNYVMHWVKQKPGQGLEWIGYFNPYNDGTNYNEKFKGKATLTSDKSSNTAYMELSSLTSEDSAVYYCARGGVRRYFDVWGAGTTVTVSS
VL: DIQMTQSPSSLSASLGERVSLTCRASQDIGSNLNWLQLGPDGTIKRLIYATFSLDSGVPKRFSGSRSGSDYSLTISSLESEDFVDYYCQQYANFPPTFGGGTKLEIK
B2: mu-105 (antibody, V domains shown)
VH: EVQLQQSGPELVKPGASVKMSCKASGYTFTDYYMNWVKQSHGKSLEWIGYIYPNNGGTGYNQRFKGKATLTADKSSSTAYMELRSLTSEDSAVYYCARWGGTRLGYYAMDYWGQGTSVTVSS
VL: DIVMTQSQKFMSTSVGDRVSVTCKASQNVGTNVVWYQQKPGQSPKLLIYWASTRHTGVPDRFTGSGSGTDFTLTISNVQSEDLADYFCQQYSRYPYTFGGGTKLEIK
B3: mu-89 (antibody, V domains shown)
VH: EVQLVESGGDLVKPGGSLKLSCAASGFTFSSYGMSWVRQTPDKRLEWVATISSGGSYTYYPDSVKGRFTFSRDNAKNTLYLQMSSLKSEDTAMYYCVRQALRYHMDSWGQGTSVTVSS
VL: DIVMTQSQKFMSTSVGDRVSVTCKASQNVGTNVAWYQQKPGQSPKALIYSASYRYSGVPDRFTGSGSGTDFTLTISNVQSEDLADFFCQQYYSYPWTFGGGTKLEIK
B4: mu-128 (antibody, V domains shown)
VH: DVQLVESGGGLVQPGGSRKVSCAASGFTFSSFGMHWVRQAPEKGLEWVAYISRGSSTIYYADTVKGRFTISRDNPKNTLFLQMTSLRSEDTAMYYCARSGYGSSSYYFDYWGQGTTLTVSS
VL: ENVLTQSPAIMSASPREKVTMTCRASSSIRSSYLHWYQQKSGASPKLWIYSTSNLASGVPARFSGSGSGTSYSLTISSVEAEDAATYYCQQFSGYPLTFGGGTKLEIK

From patent publication US20260226168A1 come the findings set out here.

This assay deals with human GPRC5D protein (human) (UniProt Q9NZD1). Kind of assay: FACS, subclone culture supernatant on NCI-H929 cells (medium alone: MFI 8242).
Chain of human GPRC5D protein (human) (Q9NZD1 whole entry): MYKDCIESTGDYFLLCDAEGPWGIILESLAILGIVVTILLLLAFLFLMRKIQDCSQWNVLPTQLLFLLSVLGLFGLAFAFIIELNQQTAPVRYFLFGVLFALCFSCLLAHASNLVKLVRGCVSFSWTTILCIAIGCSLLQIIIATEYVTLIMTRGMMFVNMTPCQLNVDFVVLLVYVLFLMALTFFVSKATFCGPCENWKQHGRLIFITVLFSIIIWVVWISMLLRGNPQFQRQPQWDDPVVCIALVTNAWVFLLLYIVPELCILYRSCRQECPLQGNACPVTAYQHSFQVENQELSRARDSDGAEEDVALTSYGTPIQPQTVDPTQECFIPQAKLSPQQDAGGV
Consider B1, for which the MFI was determined as 12800. As to B2, the MFI was found to be 13200. The molecule B3 showed an MFI of 11900. Take B4: the MFI is 15700.
